{"source": "patent US20190262327A1", "about": "“COMBINATION OF A BACE INHIBITOR AND AN ANTIBODY OR ANTIGEN-BINDING FRAGMENT FOR THE TREATMENT OF A DISORDER ASSOCIATED WITH THE ACCUMULATION OF AMYLOID BETA” (ASTRAZENECA AB, priority 2016, published 2019)", "data": [{"target": "T1, human Amyloid beta 1-42 peptide (Homo sapiens, UniProt P05067)", "T1 construct": "biotinylated human Amyloid beta 1-42 peptide (rpeptide, USA; cat: A1117); purchased rPeptide, USA A1117; host or cells: synthetic peptide", "T1 sequence (P05067 672-713)": "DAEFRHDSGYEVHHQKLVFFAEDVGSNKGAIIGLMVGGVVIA", "assay": "Surface Plasmon Resonance kinetic profiling of purified scFv (ProteOn)", "assay_type": "binding", "settings": "biotinylated human Amyloid beta 1-42 on streptavidin chip", "from_the_text": "Surface Plasmon Resonance was used to analyse the purified scFv clones that had shown significant improvement in binding affinity for human Amyloid beta 1-42 peptide over the parent sequence, Abet0144-GL, in the HTRF™ epitope competition assay (sections 1.3-1.6). Briefly, the ProteOn Protein Interaction Array System (BioRad, USA) was used to assess the kinetic parameters of the interaction between each purified scFv and synthetically produced human Amyloid beta 1-42 peptide. These experiments were performed essentially as described by Karlsson et al. (Karlsson et al., 1991).\nThe affinity of binding between each test scFv and human Amyloid beta 1-42 was estimated using assays in which biotinylated synthetic human Amyloid beta 1-42 peptide (rPeptide, USA; cat: Al 117) was non-covalently bound via a biotin/streptavidin interaction to a proprietary streptavidin chip (NTA 176-5021) at five different surface densities. The chip surface was regenerated between cycles by a single 60 second injection of 10 mM Glycine pH 2.0 to remove scFv bound to the peptide.\nEach scFv at 100-200 nM was sequentially passed over the peptide surface for a sufficient amount of time to observe sensorgrams that could be fitted to an appropriate binding model with confidence. An irrelevant scFv blank was subtracted from the main dataset to reduce the impact of any buffer artefacts or non-specific binding effects. An appropriate binding model was then fitted to the data.", "units": {"ka": "M⁻¹ s⁻¹", "kd": "s⁻¹"}, "values": [{"molecule": "Abet0370: optimized anti-Aβ1-42 clone derived from Abet0144-GL (protein, left off: small tags and cut ends, optimized anti-Aβ1-42 clone derived from Abet0144-GL) scFv (part 1 of 2): EVQLLESGGGLVQPGGSLRLSCAASGFHFPMSAMWWVRQAPGKGLEWVSVIGETPERQAYADSVKGRFTISRDNSKSTLYLQMNSLRAEDTAVYYCAREWMDHSRPYYYYGMDVWGQGTLVTVSS scFv (part 2 of 2): SYELTQPPSVSVSPGQTASITCTTPHFNSKFASWYQQKPGQSPVLVIYRDDKRPSGIPERFSASNSGHTATLTISGTQAMDEADYYCQAQDSTTRVFGGGTRLTVL", "ka": 119000, "kd": "7.76e-05"}, {"molecule": "Abet0322b: optimized anti-Aβ1-42 clone derived from Abet0144-GL (protein, left off: small tags and cut ends, optimized anti-Aβ1-42 clone derived from Abet0144-GL) scFv (part 1 of 2): EVQLLESGGGLVQPGGSLRLSCAASNEEFQYNPMWWVRQAPGKGLEWVSVIGSSGGATVYADAVKGRFTISRDNSENTLYLQMNSLRAEDTAVYYCAREWMDHSRPYYYYGMDVWGQGTLVTVSS scFv (part 2 of 2): SYELTQPPSVSVSPGQTASITCSGHNLGDKFASWYQQKPGQSPVLVIYRDDKRPSEIPERFSASNSGHTATLTISGTQATDEADYYCSSQDTVTRVFGGGTKLTVL", "ka": 203000, "kd": 0.000165}, {"molecule": "Abet0371: optimized anti-Aβ1-42 clone derived from Abet0144-GL (protein, left off: small tags and cut ends, optimized anti-Aβ1-42 clone derived from Abet0144-GL) scFv (part 1 of 2): EVQLSESGGGLVQPGGSLRLSCAASHDAFPFDTMWWVRQAPGKGLEWVSVIGSSGGTTVYADSVKGRFTVSRDNSKNTLYLQMNSLRAEDTAVYYCAREWMDHSRPYYYYGMDVWGQGTLVTVSS scFv (part 2 of 2): SYELTQPPSVSVSPGQTASITCSGHNISSSWVSWYQQKPGQSPVLVIYRDDKRPSGIPERFSASNSGHTATLTISGTQATDEADYYCSSQDTVTRVFGGGTKLTVL", "ka": 357000, "kd": 0.000272}, {"molecule": "Abet0323b: optimized anti-Aβ1-42 clone derived from Abet0144-GL (protein, left off: small tags and cut ends, optimized anti-Aβ1-42 clone derived from Abet0144-GL) scFv (part 1 of 2): EVQLLESGGGLVQPGGSLRLSCAASTSTFQEDTMWWVRQAPGKGLEWVSVIGPNPKNNAYADSVKGRFTISRDNSKNTLYLQMNSLRAEDTAVYYCAREWMDHSRPYYYYGMDVWGQGTLVTVSS scFv (part 2 of 2): SYELTQPPSVSVSPGQTASITCSGHNLEDKFASWYQQKPGQSPVLVIYRDDKRPSGVPERFSASNSGHTATLTISGTQATDEADYYCSSQDTVTRVFGGGTKLIVL", "ka": 210000, "kd": 0.000188}, {"molecule": "Abet0373: optimized anti-Aβ1-42 clone derived from Abet0144-GL (protein, left off: small tags and cut ends, optimized anti-Aβ1-42 clone derived from Abet0144-GL) scFv (part 1 of 2): EVQLLESGGGLVQPGGSLRLSCVASGFDFERSVMWWVRQAPGKRLEWVSVIGSGKTNITYADSVKGRFTISRDNSKNTLYLQMNSLRAEDTAVYYCAREWMDHSRPYYYYGMDVWGQGTLVTVSS scFv (part 2 of 2): SYELTQPPSVSVSPGQTASITCSGHNLEDKFASWYQQKPGQSPVLVIYRDDKRPSEIPERFSASNSGHTATLTISGTQATDEADYYCSSQDTVTRVFGGGTKLTVL", "ka": 185000, "kd": "8.92e-05"}, {"molecule": "Abet0342: optimized anti-Aβ1-42 clone derived from Abet0144-GL (protein, left off: small tags and cut ends, optimized anti-Aβ1-42 clone derived from Abet0144-GL) scFv (part 1 of 2): EVQLLESGGGLVQPGGSLRLSCAASGFDFRRSVMWWVRQAPGKGLEWVSVIGAQTQNKAYADSVKGRFTISRDNSKNTLYLQMNSLRAEDTAVYYCAREWMDHSRPYYYYGMDVWGQGTLVTVSS scFv (part 2 of 2): SYELTQPPSVSVSPGQTASITCSGHNLEDKFASWYQQKPGQSPVLVIYRDDKRPSGIPERFSASNSGDTATLTISGTQAMDEADYYCQAQDSTTRVFGGGTKLTVL", "ka": 136000, "kd": "5.73e-05"}, {"molecule": "Abet0329: optimized anti-Aβ1-42 clone derived from Abet0144-GL (protein, left off: small tags and cut ends, optimized anti-Aβ1-42 clone derived from Abet0144-GL) scFv (part 1 of 2): EVQLLESGGGLVQPGGSLRLSCAASTFNLKRETMWWVRQAPGKGLEWVSVIGSHQERTSYADSVKGRFTISRDNSKNTLYLQMNSLRAEDTAVYYCAREWMDHSRPYYYYGMDVWGQGTLVTVSS scFv (part 2 of 2): SYELTQPPSVSVSPGQTASITCSGHNVSDKWMTWYQQKPGQSPVLVIYRDDKRPSGIPERFSASNSGHTATLTISGTQATDEADYYCSSQDTVTRVFGGGTKLTVL", "ka": 197000, "kd": 0.000138}, {"molecule": "Abet0368: optimized anti-Aβ1-42 clone derived from Abet0144-GL (protein, left off: small tags and cut ends, optimized anti-Aβ1-42 clone derived from Abet0144-GL) scFv (part 1 of 2): EVQLLESGGGLVQPGGSLRLSCAASGFDFGPSPMWWVRQAPGKGLEWVSVIGKDTQNSTYADSVKGRFTISRDNSKDTLYLQMNSLKAEDTAVYYCAREWMDHSRPYYYYGMDVWGQGTLVTVSS scFv (part 2 of 2): SYELTQPPSVSVSPGQTASITCSGHNLEDKFTSWYQQKSGQSPVLVIYRDDKRPSGIPERFSASNSGHTATLTISGAQATDEADYYCSSQDTVTRVFGGGTKLTVL", "ka": 187000, "kd": "9e-05"}, {"molecule": "Abet0344: optimized anti-Aβ1-42 clone derived from Abet0144-GL (protein, left off: small tags and cut ends, optimized anti-Aβ1-42 clone derived from Abet0144-GL) scFv (part 1 of 2): EVQLLESGGGLVQPGGSLSLSCAASGFTFSVYTMWWVRQAPGKGLEWVSVIGGNETRKAYADSVKGRFTISRDNSKNRLYLQMNSLRAEDTAVYYCAREWMDHSRPYYYYGMDVWGQGTLVTVSS scFv (part 2 of 2): QSVLTQPPSVSVSPGQTASITCSGHNLEDKFASWYQQKSGQSPVLVIYRDDKRPSGIPERFSASNSGHTATLTISGTQATDEADYYCATQDNFTRVFGGGTKLTVL", "ka": 77500, "kd": "5.73e-05"}, {"molecule": "Abet0343: optimized anti-Aβ1-42 clone from VH1:VH2:VL3 recombination library (protein, left off: small tags and cut ends, optimized anti-Aβ1-42 clone from VH1:VH2:VL3 recombination library) scFv (part 1 of 2): EVQLLESGGGLVQPGGSLRLSCAASGFNFNHQVMWWVRQAPGKGLEWVSVIGKTNENIAYADSVKGRFTISRDNSKNTLYLQMNSLRAEDTAVYYCAREWMDHSRPYYYYGMDVWGQGTLVTVSS scFv (part 2 of 2): QSVLTQPPSVSVSPGQTASITCSGHNLEDKFASWYQQKSGQSPVLVIYRDDKRPSGIPERFSASNSGHTATLTISGTQATDEADYYCSSQDTVTRVFGGGTKLTVL", "ka": 120000, "kd": "2.25e-05"}, {"molecule": "Abet0374: optimized anti-Aβ1-42 clone derived from Abet0144-GL (protein, left off: small tags and cut ends, optimized anti-Aβ1-42 clone derived from Abet0144-GL) scFv (part 1 of 2): EVQLLESGGGLVQPGGSLRLSCAASGFQFKDTPMWWVRQAPGKGLEWVSVIGDQNHKKAYADSVKGRFTISRDNSKNTLYLQMNSLRAEDTAVYYCAREWMDHSRPYYYYGMDAWGQGTLVTVSS scFv (part 2 of 2): SYELTQPPSVSVTPGQTASITCSGHNLGGKFASWYQQKPGQSPVLVIYRDDKRPSGIPERFSASNFGHTATLTISGTQATDEADYYCSSQDTVTRVFGGGTKLTVL", "ka": 256000, "kd": "6.04e-05"}, {"molecule": "Abet0328: optimized anti-Aβ1-42 clone derived from Abet0144-GL (protein, left off: small tags and cut ends, optimized anti-Aβ1-42 clone derived from Abet0144-GL) scFv (part 1 of 2): EVQLLESGGGLVQPGGSLRLSCAASRDPFKADTMWWVRQAPRKRLEWVSVIGAHTTNSAYADSVKGRFTISRDNSKNTLYLQMNSLRAEDTAVYYCAREWMDRSRPYYYYGMDVWGQGTLVTVSS scFv (part 2 of 2): SYELTQPPSVSVSPGQTVSITCSGRNLEDKFASWYQQKPGQSPVLVIYRDDKRPSGVPERFSASNSGHTATLTISGTQATDEADYYCSSQDTVTRVFGGGTKLTVL", "ka": 141000, "kd": 0.000103}, {"molecule": "Abet0372: optimized anti-Aβ1-42 clone derived from Abet0144-GL (protein, left off: small tags and cut ends, optimized anti-Aβ1-42 clone derived from Abet0144-GL) scFv (part 1 of 2): EVQLLESGGGLVQPGGSLRLSCAASSDMFNIETMWWVRQAPGKGLEWVSVIGKGMNNVSYADSVKGRFTISRDNSKNTLYLQMNSLRAEDTAVYYCAREWMDHSRPYYYYGMDVWGQGTLVTVSS scFv (part 2 of 2): SYELTQPPSVSVSPGQTASITCSGHNLEDKFASWYQQKPGQSPVLVIYRDDKRPSGIPERFSASNSGHTATLTISGTQATDEADYYCSSQDTVTRVFGGGTKLTVL", "ka": 243000, "kd": 0.000176}, {"molecule": "Abet0332: optimized anti-Aβ1-42 clone derived from Abet0144-GL (protein, left off: small tags and cut ends, optimized anti-Aβ1-42 clone derived from Abet0144-GL) scFv (part 1 of 2): EVQLLESGGGLVQPGESLRLSCAASSDSWHTDIMWWVRQAPGKRLEWVSVIGNSNKKIAYADSVKGRFTISRDNSKNTLYLQMNSLRAEDTAVYYCAREWMDHSRPYYYYGMDVWGQGTLVTVSS scFv (part 2 of 2): SYELTQPPSVSVSPGQTASITCSGHNIGAKWVSWYQQKPGQSPILVIYRDDKRPSGIPERFSASNSGHTATLTISGTQATDEADYYCQAQGQVTRSFGGGTKLTVL", "ka": 329000, "kd": 0.000129}]}]}
